The test deals with T1, A5-Y384G-NYFP (full-length LMP1 with mutations in CTAR1 and CTAR2, NYFP at the C-terminus) (Epstein-Barr virus, B95-8 strain, UniProt P03230 1-386, amino acids 204-208 PQQAT mutated to AAAAA | Y384G).
T1 sequence: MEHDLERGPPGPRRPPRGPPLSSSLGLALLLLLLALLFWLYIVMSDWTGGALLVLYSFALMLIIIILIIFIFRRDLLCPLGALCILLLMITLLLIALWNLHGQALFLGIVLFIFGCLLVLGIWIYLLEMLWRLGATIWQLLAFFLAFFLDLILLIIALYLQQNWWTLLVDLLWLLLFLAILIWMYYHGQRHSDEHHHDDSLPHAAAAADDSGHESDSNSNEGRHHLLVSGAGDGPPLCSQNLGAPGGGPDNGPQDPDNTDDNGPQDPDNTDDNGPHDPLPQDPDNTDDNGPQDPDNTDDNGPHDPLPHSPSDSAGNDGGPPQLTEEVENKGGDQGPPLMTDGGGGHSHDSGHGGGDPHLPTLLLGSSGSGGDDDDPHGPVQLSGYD
As to the kind of experiment: cell-based or functional assay.

B1: CYFP-TRAF2 (CYFP fused to the amino-terminus of TRAF2, amino acids 98-501) (domain or fragment)
chain: REVESLPAVCPSDGCTWKGTLKEYESCHEGRCPLMLTECPACKGLVRLGEKERHLEHECPERSLSCRHCRAPCCGADVKAHHEVCPKFPLTCDGCGKKKIPREKFQDHVKTCGKCRVPCRFHAIGCLETVEGEKQQEHEVQWLREHLAMLLSSVLEAKPLLGDQSHAGSELLQRCESLEKKTATFENIVCVLNREVERVAMTAEACSRQHRLDQDKIEALSSKVQQLERSIGLKDLAMADLEQKVLEMEASTYDGVFIWKISDFARKRQEAVAGRIPAIFSPAFYTSRYGYKMCLRIYLNGDGTGRGTHLSLFFVVMKGPNDALLRWPFNQKVTLMLLDQNNREHVIDAFRPDVTSSSFQRPVNDMNIASGCPLFCPVSKMEAKNSYVRDDAIFIKAIVDLTGL
As for B1, the “NF-kB luciferase reporter activity in HEK-293T cells transfected with A5-Y384G-NYFP + A5-Y384G-CYFP (A5-Y384G BiFC), fold above vector; about 50% of LMP1 and LMP1-BiFC” value is roughly 22 fold.
